Data reported in article PMC13581290, “A systematic interactome of Saccharomyces cerevisiae SET1C expands its functional landscape and identifies candidate regulatory connections” (eLife, 2026).

Molecular target: T1, reconstituted SET1C (FLAG-Set1 and the seven other untagged subunits) (S. cerevisiae, UniProt P38827 1-1080; P39706 1-426; P36104 1-329; P38123 1-315; P43132 1-505; Q03323 …)
T1 construct: Set1, S. cerevisiae, full length (Set1 FL); Swd1, S. cerevisiae, untagged subunit; Swd2, S. cerevisiae, untagged subunit; Swd3, S. cerevisiae, untagged subunit; Bre2, S. cerevisiae, untagged subunit; Sdc1, S. cerevisiae, untagged subunit; Spp1, S. cerevisiae, untagged subunit; Shg1, S. cerevisiae, untagged subunit; The seven subunits are named in the introduction; also called full-length SET1C; …
Test: pull-down; GST-tagged Snf2 fragments (250 nM) on glutathione-Sepharose 4B with SET1C or C762SET1C (25 nM), BSA 0.2 mg/ml; 20 mM Tris-Cl pH 7.9, 150 mM NaCl, 0.2 mM EDTA, 20% glycerol, 0.1% NP-40; 4°C, 3 hr; immunoblotting
Conditions: both partners purified

binding result: binds
B1: GST-Snf2C-AT-hook (domain or fragment, S. cerevisiae, UniProt P22082 1384-1547, looked up)
chain: ARKQRTKKEDKSEAIDGNGEIKGENIDADNDGPRINNISAEDRADTDLAMNDDDFLSKKRKAGRPRGRPKKVKLEGSENSEPPALESSPVTGDNSPSEDFMDIPKPRTAGKTSVKSARTSTRGRGRGRGRGRGRGRGRGRPPKARNGLDYVRTPAAATSPIDIR
notes: Snf2, S. cerevisiae, AT-hook region 1384-1547; also called Snf2-AT-hook; GST-Snf2-AT-hook; source: E. coli BL21, purified
